Source: the supplement of paper PMC12042874
± gives the uncertainty stated by the source.

Assay: amyloid nucleation score (Sup35N fusion, yeast selection) (log enrichment); library NNK3; higher = more nucleation; inactive = no reads after selection
In short: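 Peptides of 20 random codons fused to Sup35N were expressed in psi-negative yeast, induced 24 hours with 100 μM copper sulfate, then grown 7 days at 30°C on medium lacking adenine and uracil. Input and output plasmid inserts were Illumina-sequenced. Nucleation score is the DiMSum log enrichment of output over input reads, centred on the mode score of non-aggregating sequences, excluding sequences with under 100 input reads. Random libraries had three technical output replicates.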

Row | Substance | amyloid nucleation score
1 | LLTVEVPLWKIFDAML | inactive
2 | LLVCSWC | 2.1 ± 0.093
3 | LLVSFLVVLSWAVRFSRMGD | inactive
4 | LLVVYIFTGPLTVPHVWTIE | inactive
5 | LMANVGPAWLQSFAIRGTSH | inactive
6 | LMCDWGVY | -0.175 ± 0.85
7 | LMDFLKYAMFRGTMVCW | inactive
8 | LMHGPMLVFRFVASNSCRER | inactive
9 | LMLRVHGMW | inactive
10 | LMNTYL | 1.71 ± 0.099
11 | LMPSDFISSYNSLYDGCLGG | inactive
12 | LMSNHCGKYWRHFSWIMTVF | inactive
13 | LMSSGVGLPFSDTSAWLIVW | inactive
14 | LMSTYVTFFRSCKPSSCVFV | inactive
15 | LMVASISNVQRRIVRVKLCD | inactive
16 | LMWTGF | inactive
17 | LMYAVLGTQTVSLSAFKSR | -0.3 ± 1.1
18 | LNDLCKMPVSLFIHGLCLMT | inactive
19 | LNFDNRNFFGDMSAESATPF | inactive
20 | LNFNSWNGLKYR | inactive
21 | LNGMFG | inactive
22 | LNHGVCIFYDQFANLELPPR | 2.09 ± 0.067
23 | LNIRGSFCFYGSWIVADFHM | 0.336 ± 0.38

Row | Substance | amyloid nucleation score
24 | LNKVIRCEAYRCKTMN | inactive
25 | LNLCTRLVFNPVTFQGNTFK | inactive
26 | LNMCLSLVSVLRAVSVYLWT | inactive
27 | LNPLMFKMRFLMEYNLAWGV | 0.891 ± 0.28
28 | LNVCVMEKNSNLRWSYWDLC | 1.09 ± 0.15
29 | LNVLAPFGWLARFIILAIP | inactive
30 | LNYVCCCIQSPPEFNIS | 3.36 ± 0.07
31 | LPFIRV | 0.007 ± 0.27
32 | LPMQYKLLSVFVADFFTIFV | -1.07 ± 1.7
33 | LPVPGTPLKKAVGGIIRGCG | inactive
34 | LQHWPRTFWMGSRYAYLFSL | inactive
35 | LQRIGIYMTTFCENRCPDAE | inactive
36 | LQRVFLENRTSVYSVTG | inactive
37 | LQSGDRIVTDSYVRAYTMHV | inactive
38 | LQTFDYQRVWNKCLSEFSLE | inactive
39 | LQVARIMVSWIDQCGENRTD | inactive
40 | LQVSIRLTLTNHVDRHTMPM | 1.36 ± 0.15
41 | LQYNISVWELC | inactive
42 | LRAFMYLFTYKTWIRTSNGV | inactive
43 | LRAICKSCGVASGYVAAPRA | -0.478 ± 0.52
44 | LRASTPYHPMLFELGKLALI | inactive
45 | LRDTGWLIGLMCCSIQIGSG | 2.13 ± 0.069
46 | LRGARCYKSNRVIGVLCGSV | inactive

Row | Substance | amyloid nucleation score
47 | LRHWRMRLSIGN | inactive
48 | LRKFFHLLQIIMERNINRSI | inactive
49 | LRLMAGNGSSKVGPIKMPWY | inactive
50 | LRLQRDPCSNSLSVLSCIFC | 2.63 ± 0.06
51 | LRLVTMSYWPRYLLRRKCIR | inactive
52 | LRNLNK | inactive
53 | LRPCRDRRFLVPDDYSSVFF | inactive
54 | LRPNLQSDVPRRYTMCGTHA | inactive
55 | LRSDMLVVPRIFFACFWSIK | inactive
56 | LRTWLL | inactive
57 | LRVLAP | 0.815 ± 0.16
58 | LRVRLCSGSSRIWLEVLVRR | inactive
59 | LRVYLLAWL | 0.781 ± 0.16
60 | LRWLDVLDHTLDIYVSNESI | inactive
61 | LRWYPVDMI | inactive
62 | LSDAR | inactive
63 | LSDFL | inactive
64 | LSDGGAFLLIRHVFVWGFVT | inactive
65 | LSEIGIPVAVSFKPADSLGL | inactive
66 | LSFNTVDSPGRIYFRIWYGV | 1.07 ± 0.14
67 | LSGLFARRNQWWKYGLRRN | inactive
68 | LSGRIAKTKRLIVHRLCEEG | inactive
69 | LSGRVERVW | inactive

Row | Substance | amyloid nucleation score
70 | LSHYVMVTYRAKGRMAGRIW | inactive
71 | LSIDEWRFSSANSTALECHV | inactive
72 | LSINTQTS | inactive
73 | LSKHS | inactive
74 | LSKVVLLVFKGTP | inactive
75 | LSLNSEVFGLSSTSNTVPFD | inactive
76 | LSMSYLMSVLLCDLQKVYNT | inactive
77 | LSNPTSRVLSYRTNM | inactive
78 | LSNVVGRATGKRTTSYHEDA | 0.43 ± 0.17
79 | LSPQSIVSYYTLWTFGFTAC | -0.28 ± 0.77
80 | LSQVFLVMFKF | inactive
81 | LSRGFYAS | inactive
82 | LSRLFLSRVGHVIYTKSSVD | inactive
83 | LSSETWRRLQIVSIHYGLVV | inactive
84 | LSSHS | inactive
85 | LSVCVIEHAWVFCRTPVQAF | inactive
86 | LSVMLQ | 0.988 ± 0.19
87 | LSVYGLQGHSNHNRMDGISW | 0.718 ± 0.2
88 | LSWIASSGKGWSTTMCISTM | inactive
89 | LSWSGNSSAYKSIIR | inactive
90 | LSYYVFRYTNTHWSPCFYIE | inactive
91 | LTAYGNVNCV | inactive
92 | LTDSY | inactive

Row | Substance | amyloid nucleation score
93 | LTGCRL | inactive
94 | LTIAIWVMYKDQYFCLWHLL | inactive
95 | LTIINRFEFRQKNINGTYRK | 2.73 ± 0.068
96 | LTSLLTARKNCTNFHN | inactive
97 | LTVLSCTAQVDHGIAYCLEV | inactive
98 | LTWYWKNGCSLLPLIGLSGN | inactive
99 | LVAGSTRTSLLVLRALGAWL | inactive
100 | LVDHLFDMITMHDGPCQLHQ | inactive
101 | LVDLGFMRRCSQSRLQDFCF | 0.832 ± 0.24
102 | LVEIIHVSLVFLP | inactive
103 | LVEMKALRTD | inactive
104 | LVFIWAKTHRHQLFVTEAEL | inactive
105 | LVGFRTGTALLDQMAL | inactive
106 | LVGTRRLSSYRHRFKWITIG | inactive
107 | LVHDLDLCSPGVSYQKSRMS | inactive
108 | LVIWHIVKTAVMWTARTERL | -0.409 ± 1.5
109 | LVMNNRYLYSRFLLLV | -0.619 ± 0.73
110 | LVPVMTFNWPKPSNGVSAVA | -0.413 ± 1
111 | LVRRHSFSGYRRDT | inactive
112 | LVSCK | inactive
113 | LVSSMMIHVYFNEVLVFMIC | 0.796 ± 0.1
114 | LVTFFSGRYGHWWLDNCWRQ | inactive
115 | LVVPGYNLL | inactive

Row | Substance | amyloid nucleation score
116 | LVVRNVEVPIHR | inactive
117 | LVVYSVGFWHR | -0.143 ± 0.48
118 | LVWHLHSSSCRARCRIGGGK | inactive
119 | LVYKLRGRCYERLYKWRLCD | inactive
120 | LVYNATYCSSMHHSGS | inactive
121 | LVYPSFLLFKSIASHDSTGD | inactive
122 | LWEDNVWVLKR | -0.1 ± 0.19
123 | LWGYDNDVNCCTMALNVHGV | 0.503 ± 0.3
124 | LWHKMSDMV | inactive
125 | LWKFSILAYRRFILFKLQMN | inactive
126 | LWMFDYKPRLVCQKSV | inactive
127 | LWSCPTDFRMCSVWLTLRVS | inactive
128 | LWVAVYMFGTCWMRDEVDDV | inactive
129 | LWVCNRGGTPTSVSSESRRE | -0.187 ± 1
130 | LWYTSSSRGWPISLSSMW | inactive
131 | LWYWVELLCCTGGSRA | 2.02 ± 0.086
132 | LYAFICTTYTCVVN | inactive
133 | LYCRLCVSIFM | -0.02 ± 1.1
134 | LYDCSINKQG | inactive
135 | LYDDHFYDWQGYVRRRILDS | inactive
136 | LYDLNLSDLMNCRYTIRGWF | inactive
137 | LYEGD | inactive
138 | LYETSRSFPH | inactive

Row | Substance | amyloid nucleation score
139 | LYFILLAHLFSCNNPVSKDP | 1.4 ± 0.13
140 | LYGIFHRYTNFCSSVLCQVF | 1.66 ± 0.12
141 | LYGLLSCSERVVKLWFWSWV | inactive
142 | LYHPGALVHQQIDS | inactive
143 | LYHTLKTHVKIFPCHSTDAP | inactive
144 | LYIIFERD | inactive
145 | LYKGYYVLMLEWARDKIHSA | inactive
146 | LYLVMSYV | inactive
147 | LYLYYSSTVSLVKYSNEVNC | inactive
148 | LYMRLIGIRRAMHIYPPLKS | inactive
149 | LYPMGFQ | inactive
150 | LYSPYLGCDNGATQFWSGTT | 0.226 ± 0.88
151 | LYSSLCRGWLCRISISTRAP | inactive
152 | LYVLSGVGICIRGDRLSC | 0.535 ± 0.36
153 | LYVVWYSHPWTEYFACSLVA | inactive
154 | LYVWLAWYWVYPINHALVVC | inactive
155 | LYYSWKKEYQFIWVVHTFAK | inactive
156 | MAAFVCSFEFSLGSTCSMGG | inactive
157 | MAIFKLFVPFIFLIEFCYMV | inactive
158 | MAPPNIWFQCQ | inactive
159 | MAWGLVNMRMSLSAKYQGAL | inactive
160 | MCAHVNVMRNSFYRRNAPNY | 0.603 ± 0.16
